Article PMC4358659, “The functional interactome of PYHIN immune regulators reveals IFIX is a sensor of viral DNA”

Columns and labels:
GST-IFIX-HIN200 [1] = molecular target: T1, GST-IFIX-HIN200 (human, UniProt Q6K0P9 200-492); experiment: EMSA; 2 pmol protein, 20 fmol DNA; EMSA: 10 mM Tris pH 7.5, 50 mM KCl, 1 mM DTT, 50 μg/ml BSA, ambient temperature, 30 min; details: protein: recombinant; tags: N-terminal GST (pGEX-4T1); label: 5'-biotin on sense strand; blunt
T1 sequence: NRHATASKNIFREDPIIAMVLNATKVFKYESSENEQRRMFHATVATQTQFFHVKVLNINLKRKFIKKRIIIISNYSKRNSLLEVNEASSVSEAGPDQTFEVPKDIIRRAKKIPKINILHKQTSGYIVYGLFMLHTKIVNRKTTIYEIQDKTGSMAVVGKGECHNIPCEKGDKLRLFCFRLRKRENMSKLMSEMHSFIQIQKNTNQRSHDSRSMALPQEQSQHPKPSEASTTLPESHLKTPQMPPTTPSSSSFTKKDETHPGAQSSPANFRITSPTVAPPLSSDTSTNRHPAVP

GST-IFIX-HIN200 [2] = molecular target: T1, GST-IFIX-HIN200; experiment: competition; unlabeled ISD competes with biotinylated ISD (EMSA); EMSA: 10 mM Tris pH 7.5, 50 mM KCl, 1 mM DTT, 50 μg/ml BSA, ambient temperature, 30 min; details: protein: recombinant; tags: N-terminal GST (pGEX-4T1); blunt

B1: ISD (biotinylated) (dsDNA)
DNA 1: TACAGATCTACTAGTGATCTATGACTGATCTGTACATGATCTACA
DNA 2: TGTAGATCATGTACAGATCAGTCATAGATCACTAGTAGATCTGTA
binding result (GST-IFIX-HIN200 [1]): binds

B2: ISD (unlabeled competitor) (dsDNA)
DNA 1: B1 DNA 1
DNA 2: B1 DNA 2
binding result (GST-IFIX-HIN200 [2]): binds
